These results are taken from paper doi:10.1101/2020.04.07.023903.

For the assay, the target named is SARS-CoV-2 S glycoprotein, full length, expressed at the surface of ExpiCHO cells (SARS-CoV-2 (isolate BetaCoV/Wuhan-Hu-1/2019)) (UniProt P0DTC2).

As to S309 Fab fragment, the neutralization of SARS-CoV-2-MLV pseudovirus (transduction), IC50 turned out to be 3.8 nM and the neutralization of SARS-CoV-2-MLV pseudovirus, plateau of neutralization is 80%.
For “S309 full-length IgG1 (rIgG-LS) (antibody)”, the neutralization of SARS-CoV-2-MLV pseudovirus (transduction), IC50 is 3.5 nM and the neutralization of SARS-CoV-2-MLV pseudovirus, maximal neutralization is 100%.
